From patent KR20160103767A (dated 2016)

T1: 재조합 인간 TFPI (Recombinant human Tissue Factor Pathway Inhibitor, full-form, Cat.No.TFPI-875H, Creative Biomart) (human, UniProt P10646 29-304)
T1 sequence: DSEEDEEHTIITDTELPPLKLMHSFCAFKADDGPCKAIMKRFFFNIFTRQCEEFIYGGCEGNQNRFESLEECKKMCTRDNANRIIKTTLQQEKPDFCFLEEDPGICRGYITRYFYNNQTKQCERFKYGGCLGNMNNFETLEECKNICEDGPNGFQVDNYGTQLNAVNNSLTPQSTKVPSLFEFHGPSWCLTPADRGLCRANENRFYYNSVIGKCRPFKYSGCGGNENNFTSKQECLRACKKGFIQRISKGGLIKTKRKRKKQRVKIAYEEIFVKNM

B1: 클론 T417 (anti-TFPI chimeric antibody) (antibody, V domains shown)
VH: EVHLVESGGDLVKPGGSLKLSCAASGFTFSSYAMSWVRQTPDKRLEWVATITTGGSYTYYPDSVKGRFTISRDNAKNTLYLQMSSLKSEDTAMYYCARQDGNFLMDYWGQGTTVTVSS
VL: not shown
B2: 클론 T308 (anti-TFPI chimeric antibody) (antibody, V domains shown)
VH: EVKLVESGGGLVKPGGSLKLSCAASGFTFSNYPMSWVRQTPEKRLEWVATISNSGSYTYYPDSVKGRFTISRDNAKNTLYLQMNSLRSEDTAMYYCARQVYGNYEDFDYWGQGTTLTVSS
VL: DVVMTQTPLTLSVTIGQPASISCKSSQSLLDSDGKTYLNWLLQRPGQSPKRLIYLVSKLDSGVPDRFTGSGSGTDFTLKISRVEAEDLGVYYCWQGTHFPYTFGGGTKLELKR

Biological target: T1, 재조합 인간 TFPI (Recombinant human Tissue …)
Test: cell-based or functional assay

Binder	FXa activity assay: TFPI inhibition (10nM comparison), relative to positive control (mAb2021)	FXa activity assay: TFPI inhibition at 10nM antibody, relative to positive control	FXa activity assay: TFPI inhibition at 10nM antibody, relative to positive control (mAb2021)	FXa activity assay: TFPI inhibition at 40nM antibody, relative to positive control	TF/FVIIa/FXa complex assay: TFPI inhibition at 50nM antibody, relative to positive control (no antibody, no TFPI)	TF/FVIIa/FXa complex assay: TFPI inhibition at 100nM antibody, relative to positive control (no antibody, no TFPI)	TF/FVIIa/FXa complex assay: TFPI inhibition, relative to positive control (no antibody, no TFPI)
B1	77%	72%	78.4%	89%	100%	100%	100%
B2	–	~64%	–	91%	~87%	100%	–
